“And” between values parts separate entries of the source, which are not always exact repeats. Equal values may be shown once. Read-outs that look alike come from different tables or passages of the source. Values belong to the molecule of their own block, whether it stands above or below them. Where no end group is shown, it is not given here. TAMRA = 5(6)-carboxytetramethylrhodamine
Legend:
[1] = biological target: T1, NPR-1 (Caenorhabditis elegans, UniProt Q18534); assay: cAMP reporter gene assay; type: cell-based, C. elegans; conditions: wild type NPR-1
T1 sequence (Q18534 1-457): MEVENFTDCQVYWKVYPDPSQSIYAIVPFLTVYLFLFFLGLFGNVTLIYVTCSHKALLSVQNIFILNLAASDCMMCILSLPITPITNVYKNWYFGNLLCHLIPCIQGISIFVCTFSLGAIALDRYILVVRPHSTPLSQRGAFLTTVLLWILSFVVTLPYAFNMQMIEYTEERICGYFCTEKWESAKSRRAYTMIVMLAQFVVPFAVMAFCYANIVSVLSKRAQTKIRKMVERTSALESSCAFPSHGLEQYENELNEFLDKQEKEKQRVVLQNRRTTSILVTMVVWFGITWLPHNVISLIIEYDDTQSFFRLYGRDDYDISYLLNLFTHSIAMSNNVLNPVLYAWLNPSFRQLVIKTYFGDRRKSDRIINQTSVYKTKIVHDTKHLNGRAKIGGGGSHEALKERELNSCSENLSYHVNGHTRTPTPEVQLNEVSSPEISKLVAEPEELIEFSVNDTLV

[2] = biological target: T2, Nluc-NPR-1-eYFP (C. elegans neuropeptide receptor NPR-1, wild type) (C. elegans) (UniProt Q18534)
T2 sequence: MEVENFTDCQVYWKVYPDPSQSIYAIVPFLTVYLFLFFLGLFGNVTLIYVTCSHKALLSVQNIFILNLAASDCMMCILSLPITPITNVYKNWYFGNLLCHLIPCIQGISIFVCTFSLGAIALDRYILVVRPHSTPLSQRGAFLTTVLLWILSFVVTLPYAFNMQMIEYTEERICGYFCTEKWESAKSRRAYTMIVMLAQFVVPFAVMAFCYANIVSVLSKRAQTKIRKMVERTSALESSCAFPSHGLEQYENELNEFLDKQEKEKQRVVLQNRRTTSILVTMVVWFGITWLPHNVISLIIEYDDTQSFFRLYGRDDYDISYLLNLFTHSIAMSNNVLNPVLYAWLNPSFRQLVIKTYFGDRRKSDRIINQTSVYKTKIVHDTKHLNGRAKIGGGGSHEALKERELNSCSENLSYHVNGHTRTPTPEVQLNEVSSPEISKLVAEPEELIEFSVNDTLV

[3] = biological target: T2, Nluc-NPR-1-eYFP (C. elegans neuropeptide receptor NPR-1, wild type) (C. elegans); remark: listed apart in the source
[4] = biological target: T3, NPR-11 (Caenorhabditis elegans, UniProt Q18179); assay: cAMP reporter gene assay; type: cell-based, C. elegans; conditions: wild type NPR-11
T3 sequence (Q18179 1-402): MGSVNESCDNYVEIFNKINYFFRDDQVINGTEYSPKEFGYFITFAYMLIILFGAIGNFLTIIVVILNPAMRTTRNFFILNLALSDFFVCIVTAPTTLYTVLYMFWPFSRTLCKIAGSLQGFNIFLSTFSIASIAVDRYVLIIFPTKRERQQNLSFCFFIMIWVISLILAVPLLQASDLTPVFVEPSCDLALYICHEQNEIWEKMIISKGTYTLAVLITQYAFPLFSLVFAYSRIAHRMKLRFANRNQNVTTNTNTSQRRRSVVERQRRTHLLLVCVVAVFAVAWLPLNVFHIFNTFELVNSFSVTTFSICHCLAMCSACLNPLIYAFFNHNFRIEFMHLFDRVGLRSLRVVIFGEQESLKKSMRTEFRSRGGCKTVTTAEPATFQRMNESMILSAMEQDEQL

[5] = biological target: T1, NPR-1; assay: NanoBRET displacement binding assay, Nluc-NPR-1; design: species or system C. elegans; conditions: HEK293 membranes, 100 nM [TAMRA]-FLP-21 tracer, 90 min, room temperature
[6] = biological target: NPR-1 mutants (Caenorhabditis elegans, UniProt Q18534, E301A); assay: cAMP reporter gene assay; type: cell-based, C. elegans; conditions: NPR-1 E^6.59A
Chain of NPR-1 mutants (Caenorhabditis elegans, UniProt Q18534, E301A) (Q18534 whole entry E301A): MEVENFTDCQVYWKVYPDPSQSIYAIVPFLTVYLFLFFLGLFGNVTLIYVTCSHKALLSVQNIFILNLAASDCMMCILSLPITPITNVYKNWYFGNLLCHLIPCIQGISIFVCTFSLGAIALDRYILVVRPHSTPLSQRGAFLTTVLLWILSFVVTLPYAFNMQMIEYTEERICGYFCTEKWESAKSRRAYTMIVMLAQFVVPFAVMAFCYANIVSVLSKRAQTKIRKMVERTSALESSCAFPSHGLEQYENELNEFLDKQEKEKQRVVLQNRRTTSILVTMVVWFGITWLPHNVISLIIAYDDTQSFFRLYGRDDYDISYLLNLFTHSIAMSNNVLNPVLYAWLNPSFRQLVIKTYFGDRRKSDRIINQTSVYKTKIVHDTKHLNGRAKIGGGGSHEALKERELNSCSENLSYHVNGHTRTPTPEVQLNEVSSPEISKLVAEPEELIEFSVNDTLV

[7] = biological target: NPR-1 mutants (Caenorhabditis elegans, UniProt Q18534, E180D); assay: cAMP reporter gene assay; type: cell-based, C. elegans; conditions: NPR-1 E^5.27D
Chain of NPR-1 mutants (Caenorhabditis elegans, UniProt Q18534, E180D) (Q18534 whole entry E180D): as the sequence (Q18534 whole entry E301A) above, with E180D, A301E counted along it

[8] = biological target: NPR-11 mutants (Caenorhabditis elegans, UniProt Q18179, E196D); assay: cAMP reporter gene assay; type: cell-based, C. elegans; conditions: NPR-11 E^5.23D
Chain of NPR-11 mutants (Q18179 whole entry E196D): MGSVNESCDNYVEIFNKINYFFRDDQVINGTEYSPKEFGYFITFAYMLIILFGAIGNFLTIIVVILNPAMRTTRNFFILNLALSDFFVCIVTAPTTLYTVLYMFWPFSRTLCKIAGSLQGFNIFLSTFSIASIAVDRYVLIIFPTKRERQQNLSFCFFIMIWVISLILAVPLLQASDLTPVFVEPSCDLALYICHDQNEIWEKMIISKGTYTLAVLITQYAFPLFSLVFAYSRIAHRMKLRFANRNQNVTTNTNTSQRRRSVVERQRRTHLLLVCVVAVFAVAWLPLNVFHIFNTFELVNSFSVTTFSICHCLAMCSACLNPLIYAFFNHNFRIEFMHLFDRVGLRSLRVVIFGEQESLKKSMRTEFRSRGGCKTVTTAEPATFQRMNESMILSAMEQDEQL

[9] = biological target: Nluc-NPR-11-eYFP Q3.32A (C. elegans) (UniProt Q18179)
[10] = biological target: NPR-1-eYFP E5.27D (C. elegans), Q18534
[11] = biological target: NPR-1-eYFP E6.59D (C. elegans), Q18534
[12] = biological target: NPR-1-eYFP E6.59A (C. elegans), Q18534
[13] = biological target: Nluc-NPR-11-eYFP Q3.32H (C. elegans) (UniProt Q18179); assay: FRET or BRET
[14] = biological target: T2, Nluc-NPR-1-eYFP (C. elegans neuropeptide receptor NPR-1, wild type) (C. elegans); remark: listed apart in the source
[15] = biological target: T2, Nluc-NPR-1-eYFP (C. elegans neuropeptide receptor NPR-1, wild type) (C. elegans); remark: listed apart in the source
[16] = biological target: T4, Nluc-NPR-11-eYFP (C. elegans neuropeptide receptor NPR-11, wild type) (C. elegans, UniProt Q18179 1-402); assay: FRET or BRET
T4 sequence (looked up): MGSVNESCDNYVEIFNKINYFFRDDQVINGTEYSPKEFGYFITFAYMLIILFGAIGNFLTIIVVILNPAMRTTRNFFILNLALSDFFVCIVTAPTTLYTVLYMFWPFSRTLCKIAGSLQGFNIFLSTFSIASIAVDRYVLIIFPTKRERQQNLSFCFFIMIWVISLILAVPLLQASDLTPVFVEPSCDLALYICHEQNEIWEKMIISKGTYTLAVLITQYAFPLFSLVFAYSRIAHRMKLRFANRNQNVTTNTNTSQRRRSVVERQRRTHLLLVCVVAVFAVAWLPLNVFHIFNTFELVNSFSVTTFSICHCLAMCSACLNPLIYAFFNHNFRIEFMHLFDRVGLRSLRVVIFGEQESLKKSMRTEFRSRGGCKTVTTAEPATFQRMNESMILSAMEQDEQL

[17] = biological target: T5, Nluc-NPR-1-eYFP (C. elegans neuropeptide receptor NPR-1, wild type) (C. elegans, UniProt Q18534 1-457); assay: cell-based or functional assay
T5 sequence (looked up): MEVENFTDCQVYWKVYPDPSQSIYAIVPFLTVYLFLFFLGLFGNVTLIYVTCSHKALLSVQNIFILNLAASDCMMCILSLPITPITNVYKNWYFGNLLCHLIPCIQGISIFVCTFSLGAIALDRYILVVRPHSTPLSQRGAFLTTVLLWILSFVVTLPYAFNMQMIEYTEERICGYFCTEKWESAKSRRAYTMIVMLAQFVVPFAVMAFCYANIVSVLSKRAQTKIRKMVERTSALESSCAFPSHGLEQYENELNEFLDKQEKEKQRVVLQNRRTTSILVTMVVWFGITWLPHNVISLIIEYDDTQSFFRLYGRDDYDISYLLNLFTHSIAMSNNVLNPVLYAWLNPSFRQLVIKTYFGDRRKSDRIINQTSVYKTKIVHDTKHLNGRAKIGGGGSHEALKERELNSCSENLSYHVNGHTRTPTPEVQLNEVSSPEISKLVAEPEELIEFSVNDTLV

[18] = biological target: T5, Nluc-NPR-1-eYFP (C. elegans …); assay: FRET or BRET
[19] = biological target: Nluc-NPR-11-eYFP Q3.32A (C. elegans) (UniProt Q18179); assay: FRET or BRET
[20] = biological target: T4, Nluc-NPR-11-eYFP (C. elegans …); assay: cell-based or functional assay
[21] = biological target: NPR-11-eYFP E5.23D (C. elegans), Q18179

EC50 shift (loss of potency) relative to wild type FLP-21 [1]: 368 fold
Molecule: [R^5A]-FLP-21: FLP-21 variant, R^5 to alanine (GLGPAPLRF-NH2)

cAMP reporter gene assay (Gi/o), EC50 shift against wild type FLP-21 [2]: > 600 fold
Molecule: [F9Cha]-FLP-21 (peptide)

cAMP reporter gene assay (Gi/o), EC50 of receptor activation [3]: 5.2 nM
Molecule: [R5hArg]-FLP-21 (peptide)

receptor activation in words [4]: wild type-like activity | Ki shift relative to wild type FLP-21 [5]: 11 fold | EC50 shift (loss of potency) relative to wild type FLP-21 [1]: 14 fold
Molecule: [F^9Y]-FLP-21: FLP-21 variant, F^9 to tyrosine (GLGPRPLRY-NH2)

EC50 shift relative to wild type FLP-21 [4]: 18 fold | EC50 shift (loss of potency) relative to wild type FLP-21 [1]: 34 fold
Molecule: [P^6A]-FLP-21: FLP-21 variant, P^6 to alanine (GLGPRALRF-NH2)

Molecule: [R^8hArg]-FLP-21: FLP-21 variant, R^8 replaced with homoarginine
EC50 shift relative to wild type FLP-21 [4]: 135 fold | EC50 shift (loss of potency) relative to wild type FLP-21 [1]: > 900 fold and 976 fold | EC50 shift relative to wild type FLP-21 at the same receptor mutant [6]: 91 fold | EC50 shift relative to wild type FLP-21 at the same receptor mutant [7]: 34 fold

EC50 shift relative to wild type FLP-34–1 [4]: > 140 fold
Molecule: [L^16A]-FLP-34–1: FLP-34–1 variant, L^16 to alanine (ADISTFASAINNAGRARY-NH2)

EC50 shift relative to wild type FLP-21 [4]: 20 fold | EC50 shift (loss of potency) relative to wild type FLP-21 [1]: > 600 fold
Molecule: [F^9Cha]-FLP-21: FLP-21 variant, F^9 replaced with cyclohexylalanine

receptor activation in words [4]: impaired activation
Molecule: [L^16Q]-FLP-34–1: FLP-34–1 variant, L^16 to glutamine (ADISTFASAINNAGRQRY-NH2)

Molecule: [R^17hArg]-FLP-34–1: FLP-34–1 variant, R^17 to homoarginine
EC50 shift relative to wild type FLP-34–1 [4]: > 70 fold and 77 fold | EC50 shift compared to wild type FLP-34–1 at the same receptor mutant [8]: 0.9 fold

EC50 shift (loss of potency) relative to wild type FLP-21 [1]: 3 fold
Molecule: Ac-FLP-21: FLP-21 acetylated at the free N terminus (Ac-GLGPRPLRF-NH2)

EC50 shift relative to wild type FLP-34–1 [4]: > 900 fold
Molecule: [R^15A]-FLP-34–1: FLP-34–1 variant, R^15 to alanine (ADISTFASAINNAGALRY-NH2)

cAMP reporter gene assay (Gi/o), EC50 of receptor activation [9]: 0.1 nM | cAMP reporter gene assay (Gi/o), EC50 of receptor activation [10]: 495 nM | cAMP reporter gene assay (Gi/o), EC50 of receptor activation [11]: 0.13 nM | cAMP reporter gene assay (Gi/o), EC50 of receptor activation [12]: 20 nM
B1: FLP-21 (…amide) (peptide)
peptide: GLGPRPLRF-NH2

fold reduction of binding affinity against wild type NPR-11 [13]: 4 fold
B2: [TAMRA]-FLP-34–1 (peptide)
peptide: {TAMRA}-ADISTFASAINNAGRLRY-NH2

cAMP reporter gene assay (Gi/o), reduction of potency against wild type FLP-21 [14]: 3 fold
B3: N-terminally acetylated FLP-21 (peptide)
peptide: Ac-GLGPRPLRF-NH2

cAMP reporter gene assay (Gi/o), EC50 shift against wild type FLP-21 [15]: 368 fold
B4: [R5A]-FLP-21 (peptide)
peptide: GLGPAPLRF-NH2

Ki [16]: 107 nM
B5: FLP-34–1 (ADISTFASAINNAGRLRYamide) (peptide)
peptide: ADISTFASAINNAGRLRY-NH2

cAMP reporter gene assay (Gi/o), decrease of activity against wild type FLP-21 [15]: 34 fold
B6: [P6A]-FLP-21 (peptide)
peptide: GLGPRALRF-NH2

Ki [16]: 107 nM
B7: FLP-21 (GLGPRPLRFamide) (peptide)
peptide: GLGPRPLRF-NH2

cAMP reporter gene assay (Gi/o), EC50 shift against wild type FLP-21 [17]: 14 fold | fold shift of Ki against wild type FLP-21 [18]: 11 fold
B8: [F9Y]-FLP-21 (peptide)
peptide: GLGPRPLRY-NH2

cAMP reporter gene assay (Gi/o), reduction of potency against wild type FLP-21 [17]: 12 fold | Kd [19]: 190 nM
B9: [TAMRA]-FLP-21 (peptide)
peptide: {TAMRA}-GLGPRPLRF-NH2

cAMP reporter gene assay (Gi/o), decrease of activity against wild type FLP-21 [17]: 497 fold | cAMP reporter gene assay (Gi/o), EC50 shift against wild type FLP-21 [20]: 10 fold | fold reduction of Ki against FLP-21 [16]: < 10 fold | fold reduction of Ki against FLP-21 [19]: 100 fold
B10: [L7A]-FLP-21 (peptide)
peptide: GLGPRPARF-NH2

cAMP reporter gene assay (Gi/o), EC50 against the wild type receptor [21]: 92 fold
B11: FLP-34–1 (…amide) (peptide)
peptide: ADISTFASAINNAGRLRY-NH2

Reference: paper PMC8380825 (Journal of molecular biology, 2021)
